# According to paper PMC6856059 (Nature, 2019):
# Molecular target: the molecule itself
# Experiment: cryo-EM structure
protein,measurement,value
N-terminally truncated zebrafish NKCC1 (domain or fragment) KFGWIKGVLVRCMLNIWGVMLFIRMTWIVGQAGIAYSCIIVIMATVVTTITGCSTSAIATNGFVRGGGAYYLISRSLGPEFGGSIGLIFAFANAVAVAMYVVGFAETVVELLMDSGLLMIDQTNDIRVIGTITVILLLGISVAGMEWEAKAQIFLLVILITAIFNYFIGSFIAVDSKKKFGFFSYDAGILAENFGPDFRGQTFFSVFSIFFPAATGILAGANISGDLADPQMAIPKGTLLAILITGLVYVGVAISAGACIVRDATGIESNFTLISNCTDAACKYGYDFSSCRPTVEGEVSSCKFGLHNDFQVMSVVSGFSPLISAGIFSATLSSALASLVSAPKVFQALCKDNIYPGIAIFGKGYGKNNEPLRGYFLTFGIALAFILIAELNVIAPIISNFFLASYALINFSVFHASLANSPGWRPSFKYYNMWASLAGAILCCVVMFIINWWAALLTNVIVLSLYIYVSYKKPDVNWGSSTQALTYHQALTHSLQLCGVADHIKTFRPQCLVMTGAPNSRPAILHLVHAFTKNVGLMLCGHVRISSRRPNFKELNSDMLRYQRWLLNNNSKAFYTCVVAEDLRQGTQYMLQAAGLGRLRPNTLVIGFKNDWRTGDIKEVETYINLIHDAFDFQYGVVILRLREGLDISHIQGQDDSSGMKDVVVSVDISKDSDGDSSKPSSKATSVQNSPAVQKDEDDDGKAHTQPLLKKDKKSPTVPLNVADQRLLDASQQFQQKQGKGTVDVWWLFDDGGLTLLIPYLIANKKKWKDCKIRVFIGGKINRIDHDRRAMATLLSKFRIDFSDITVLGDINTKPKSEGLTEFAEMIEPYKLREDDMEQEAAEKLKSEEPWRITDNELELYKAKGNRQIRLNELLKEHSSTANLIVMSMPLARKGAVSSALYMAWLDTLSKDLPPILLVRGNHQSVLTFYS,stoichiometry N,2
